US20130084298A1 (ACADEMIA SINICA, published 2013)

Biological target: T1, human clathrin heavy chain (CHC) (human, UniProt Q00610 2-1675)
T1 construct: Endogenous ~190 kDa protein of human cancer cell lines (MIA PaCa-2 and others); No recombinant construct was used; also called CLTC gene product
Assay: hybridoma mAb, target identification

T1 sequence (Q00610 2-1675 limits assumed): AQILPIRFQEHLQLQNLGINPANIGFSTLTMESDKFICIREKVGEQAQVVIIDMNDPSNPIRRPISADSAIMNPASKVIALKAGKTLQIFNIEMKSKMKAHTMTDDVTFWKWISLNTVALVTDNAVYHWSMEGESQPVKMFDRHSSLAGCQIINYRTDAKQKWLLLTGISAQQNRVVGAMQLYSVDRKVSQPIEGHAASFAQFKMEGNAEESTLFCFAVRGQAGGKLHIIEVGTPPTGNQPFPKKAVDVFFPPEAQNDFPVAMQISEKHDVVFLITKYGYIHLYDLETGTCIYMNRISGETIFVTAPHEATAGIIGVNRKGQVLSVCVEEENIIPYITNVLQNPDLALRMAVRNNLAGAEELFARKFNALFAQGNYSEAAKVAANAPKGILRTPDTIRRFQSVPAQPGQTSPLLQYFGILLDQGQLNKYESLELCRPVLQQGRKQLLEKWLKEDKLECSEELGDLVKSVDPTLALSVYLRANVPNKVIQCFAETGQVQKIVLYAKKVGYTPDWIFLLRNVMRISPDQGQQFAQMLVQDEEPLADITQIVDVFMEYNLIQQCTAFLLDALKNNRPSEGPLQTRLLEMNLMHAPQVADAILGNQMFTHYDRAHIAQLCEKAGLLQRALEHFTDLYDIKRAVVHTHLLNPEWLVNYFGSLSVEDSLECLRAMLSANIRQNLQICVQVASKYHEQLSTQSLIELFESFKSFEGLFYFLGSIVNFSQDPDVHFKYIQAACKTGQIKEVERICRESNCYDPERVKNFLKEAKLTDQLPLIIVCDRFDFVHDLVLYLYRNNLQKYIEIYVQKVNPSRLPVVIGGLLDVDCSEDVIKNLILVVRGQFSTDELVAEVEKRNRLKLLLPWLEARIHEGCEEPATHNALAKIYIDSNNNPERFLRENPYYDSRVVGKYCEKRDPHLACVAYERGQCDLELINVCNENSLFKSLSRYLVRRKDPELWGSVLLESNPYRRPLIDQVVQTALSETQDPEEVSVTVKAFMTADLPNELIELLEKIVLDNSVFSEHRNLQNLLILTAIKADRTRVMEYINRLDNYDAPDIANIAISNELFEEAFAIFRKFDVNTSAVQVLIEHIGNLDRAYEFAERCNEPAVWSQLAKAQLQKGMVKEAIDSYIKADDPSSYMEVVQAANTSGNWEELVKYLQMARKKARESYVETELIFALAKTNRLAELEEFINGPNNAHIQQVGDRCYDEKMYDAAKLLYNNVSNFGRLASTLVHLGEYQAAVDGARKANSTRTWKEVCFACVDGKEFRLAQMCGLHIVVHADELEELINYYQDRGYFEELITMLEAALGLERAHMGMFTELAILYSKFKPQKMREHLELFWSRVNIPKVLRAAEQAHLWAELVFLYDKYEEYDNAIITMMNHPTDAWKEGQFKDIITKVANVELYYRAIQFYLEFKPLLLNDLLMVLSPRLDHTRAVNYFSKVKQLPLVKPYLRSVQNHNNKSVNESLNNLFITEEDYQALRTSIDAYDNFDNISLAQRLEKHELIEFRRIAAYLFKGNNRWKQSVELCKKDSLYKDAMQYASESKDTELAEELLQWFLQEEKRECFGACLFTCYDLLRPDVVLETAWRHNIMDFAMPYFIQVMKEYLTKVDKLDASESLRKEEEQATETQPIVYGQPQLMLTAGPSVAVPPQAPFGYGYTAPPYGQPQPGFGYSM

B1: Pa65-2 (antibody, V domains shown)
VH: EVKLVESGGGLVKPGGSLNISCAASGFTFSNYVMSWVRQTPEKRLEWVATISSGDNYMYYPDSVKGRFTISSDNAKNTLFLQMSSLRSEDTALYYCARHFDNYEGNSMDYWGQGTSVTVSS
VL: DIVLTQSPATLSVTPGDSVSLSCRASQSIRSNLHWYQQKSHESPRLLIKYASQSISGIPSRFSGSGSGTDFILSINSVATEDFGVYFCQQSNSWPLTFGAGTKLELKR
notes: also called Pa65-2 mAb; anti-CHC monoclonal antibody
B1: binds.
